Laboratory results taken from patent publication US20260069656A1, “Nutritive Polypeptides and Formulations Thereof, and Methods of Production and Use Thereof” (Axcella Health Inc., priority 2013, published 2026).

B1: SEQID-00284: nutritive polypeptide (protein, listed as Arabidopsis thaliana)
chain: KLEHGVHVVSGTPGRVCDMIKRRSLRTRAIKLLILDESDEMLSRGFKDQIYDVYRYLPPDLQVCLVSATLPHEILEMTSKFMTEPVKILVKRDELTLEGIKQFFVAVEKEEWK
B2: SEQID-00357: nutritive polypeptide (protein)
chain: MKPLNRRTKIVATIGPASNSREVLYQMIQAGMNVVRLNFSHGSHEQHTKTVALLKEISQELKTSITLLQDLQGPKIRVGQLPDGGIQLMAGEYITLVPIDQYESKPNTIAIDYLHLGEEAEIGAQVLLDDGLLELKVEEISGNQVKCKIIEGGTLKSRKGVNLPSLTLRLPSLTEKDQQDLEFGISLGVDWVSLSFVRNAEDVRVLKDFLASKNASQISVMAKIEKPQAIANLEEIISECNGLMVARGDLGVEMSPERVPLLQKQIIRLCNQKGIPVITATQMLDSMINNPRPTRAEASDVANAIIDGTDAVMLSGESAVGKYPIRAVEMLAKIAEDVEPEINFINYPPAFNDETHAISEAINTIDKIIDLHCIIAYTCSGYTGQLAAAERPKAPVVALTPNPKVYHRLNLVWGVKPLLLEQEVESFEELINQAQTYLLVRQMASPGDKILIIGGIPSGKAKGTNFIKIHTIG
modifications: Arthrospira platensis NIES-39
B3: SEQID-00356: nutritive polypeptide (protein)
chain: MATAAEKLSALKSAVAGLNEISENEKNGFISLVGRYLSGEAQHVEWSKIQTPTDEVVVPYDTLAPTPEGSSEVKNLLDKLVVLKLNGGLGTTMGCTGPKSVIEVRDGLTFLDLIVIQIENLNSKYGSNVPLLLMNSFNTHDDTQKIVEKYQNSNIEIHTFNQSQYPRLVVEDFLPLPSKGHTDKDGWYPPGHGDVFPSLLNSGKLDALLSQGKEYVFVANSDNLGAIVDLKILNHLIQNKNEYCMEVTPKTLADVKGGTLISYEGRVQLLEIAQVPDEHVNEFKSIEKFKIFNTNNLWVNLNAVKRLVEADALKMEIIPNPKEVDGIKVLQLETAAGAAIRFFDKAIGINVPRSRFLPVKATSDLLLVQSDLYTLEDGFVIRNKARENPENPSIELGPEFKKVSNFLGRFKSIPSIVELDSLKVAGDVWFGAGVILKGKVSIVSKPGVKLEVPDGVAIVDKEINGPEDL
modifications: Glycine max
B4: SEQID-00359: nutritive polypeptide naturally produced in Sheep, recombinantly expressed in E. coli (protein)
chain: MLELGSQRNRAKNNHIGDLMSQSFESLGISEQRARHLETLGFTEPTPVQIQAIPEMLSGRDVVGMAQTGTGKTAAFSLPILEQIDVHAAGIQALVLTPTRELAMQVKEAIRTFSDDNALYVLTVYGGQSIDRQIQRLRRGVQVVVGTPGRILDLLNRGELKLDLLRWLVLDEADEMLSMGFIQDVEKILESADSEHRQTAFFSATMDASISKLVRRHLKSPVTVKVETPKATPKRIEQSVYMVPRGWSKARALEPILELEDPESAIIFVRTKQSAADLTNQLQAAGHSVDEYHGNLNQSQRERLLMRLRRRQVRWIVATDIAARGLDVDHLTHVINYDLPDQVDSYVHRIGRTGRAGREGKAITLIQPIDRRKLRNIERHLRQTLSIQSIPKRAEIEARYIDRLKDRVRDALAGERMASFLPIVSQLSEEYDPHAIAAAALQLAYDQTRPASIGRDDYEDDDDAVSNKPKLIKRRRPASVSNNS
modifications: Arthrospira platensis NIES-39
B5: SEQID-00354: nutritive polypeptide (protein)
chain: MSLSNKLTLDKLDVKGKRVVMRVDFNVPMKNNQITNNQRIKAAVPSIKYCLDSGAKSVVLMSHLGRPDGVPMPDKYSLQPVAVELKSLLGKDVLFLKDCVGPEVEKACADPAAGSVILLENLRFHVEEEGKGKDASGNKVKAEPTKIEAFRASLSKLGDVYVNDAFGTAHRAHSSMVGVNLPKKAGGFLMKKELNYFAKALESPERPFLAILGGAKVADKIQLISNMLDKVNEMIIGGGMAFTFLKVLNNMEIGTSLFDEEGSKIVKDLMSKADKNGVKITLPVDFVTADKFDENAKTGQATVASGIPVGWMGLDCGPESSKKYAEAVARAKQIVWNGPVGVFEWEAFARGTKALMDEVVKATSRGCITIIGGGDTATCCAKWNTEDKVSHVSTGGGASLELLEGKVLPGVDALSSV
modifications: Ovis aries
B6: SEQID-00345: nutritive polypeptide (protein)
chain: MNTLDLQNQRILVTGGAGFLGKQVIDQLLKAGAKSENISVPRSHNCDLRNLEACQQAAKGQDIIIHLAAHVGGIGLNQVKPAELFYDNLMMGTQLIHSAYQAGVKKFVCVGTICAYPKFTPVPFQEDDLWNGYPEETNAPYGIAKKALLVQLQAYRQQYGFNGIYLLPVNLYGPEDNFNPKSSHVIPALVRKVYEAQQRGDKQLPVWGDGSPSREFLYSTDAARGIVMATQHYDEPDPVNLGTNSEVTIRDLVELICELMEFQGEIVWETDKPNGQPRRCLDTNRAKERFGFVAEVEFRQGLKNTIDWYRQNPDL
modifications: Arthrospira platensis NIES-39
B7: SEQID-00338 (BS): nutritive polypeptide (protein, listed as Saccharomyces cerevisiae)
chain: MSSSESIRMVLIGPPGAGKGTQAPNLQERFHAAHLATGDMLRSQIAKGTQLGLEAKKIMDQGGLVSDDIMVNMIKDELTNNPACKNGFILDGFPRTIPQAEKLDQMLKEQGTPLEKAIELKVDDELLVARITGRLIHPASGRSYHKIFNPPKEDMKDDVTGEALVQRSDDNADALKKRLAAYHAQTEPIVDFYKKTGIWAGVDASQPPATVWADILNKLGKD
modifications: strain ATCC 204508 / S288c
B8: SEQID-00343: nutritive polypeptide (protein)
chain: MATLIAPSHHSRVEDAEALRNAFKGWGADDKAIIAILGHRNVHQRQEIRKAYEEIYQEDLIKRLESEISGDFERAMYRWMLQPADRDAVLVNVAIKNGTKDYHVIAEIACVLSAEELLAVRRAYHRRYKCSLEEDVAANTTGNLRQLLVGLVTSYRYEGDEINVKFSQTEANVLHESVKEKKGNSEEVIRILTTRSKTQLVATFNRYRDEHGISISKKLLDQTSDDFHKVLHTAIRCINDHKKYYEKVLRNAVKKFGTDEDGLSRVIVTRAEKDLKDIKELYYKRNSVHLEDEVSKETSGDYKKFLLTLLGK
modifications: Glycine max
B9: SEQID-00346: nutritive polypeptide (protein)
chain: MYYDADANLDLLAGKTIAIVGYGSQGHAHALNLKDSGMNVIVGLYPGSKSATKAKDAGLTVYPVDEAAKIADLIMILLPDEVQKTVYKNEIEPNLSEGKTLAFAHGFNIHFGQVVPPENVDVIMVAPKGPGHLVRRTYQEGQGVPCLFAVYQDASGQARDRAMAYAKGIGGTRGGILETTFREETETDLFGEQAVLCGGLSALIKAGFETLVEAGYQPELAYFECLHEVKLIVDLVVEGGLAQMRDSISNTAEYGDYTRGPRVITDATRAEMRKILKEIQTGQFAREFVLENQSGKAGFTAMRRQEAEHPIEEVGHDLRAMFSWLKKKA
modifications: Arthrospira platensis NIES-39
B10: SEQID-00298 (AN): nutritive polypeptide naturally produced in Cow (protein, listed as Bos taurus)
chain: MGLSDGEWQLVLNAWGKVEADVAGHGQEVLIRLFTGHPETLEKFDKFKHLKTEAEMKASEDLKKHGNTVLTALGGILKKKGHHEAEVKHLAESHANKHKIPVKYLEFISDAIIHVLHAKHPSDFGADAQAAMSKALELFRNDMAAQYKVLGFHG
B11: SEQID-00298 (BS): nutritive polypeptide naturally produced in Cow (protein, listed as Bos taurus)
chain: B10 chain

Assay: Intact half-life during simulated gastric fluid (SGF) digestion
Conditions: SGF pH 1.5, pepsin:polypeptide 1:20 w/w, 37° C.; produced in E. coli unless otherwise noted

| Molecule | SGF Half-life (t½) [s] |
| --- | --- |
| B1 | 60 |
| B2 | 12 |
| B3 | 12 |
| B4 | 12 |
| B5 | 12 |
| B6 | 48 |
| B7 | 12 |
| B8 | 18 |
| B9 | 12 |
| B10 | 18 |
| B11 | 6 |
